Data reported in the supplement of paper PMC10567573.

B1: STEAP1 (parent)
chain: LWKMKPRRNLEEDDYLHKDTGETS
B2: TMEM106C (parent)
chain: SEQLVNFTGKAEMGGPFSYVYFFC

Variants of: B1
Test: protein stability index of a GFP-peptide fusion (GPS, HEK-293T) (PSI 1-6); higher = more stable
Conditions: c terminus: a fixed tail appended
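Further: lentivirally expressed fusions sorted by FACS into six bins by GFP to DsRed ratio, PSI derived from sequencing read proportions per bin multiplied by bin number.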

| Variant | protein stability index |
| --- | --- |
| LWKMKPRRNLEEDDYLEKDTGETS | 4.35 |
| LWKMKPRRNLEEDDYLAKDTGETS | 4.93 |
| LWKMKPRRNLEEDDYLIKDTGETS | 4.11 |
| LWKMKPRRNLEEDDYLSKDTGETS | 4.54 |
| LWKMKPRRNLEEDDYLVKDTGETS | 4.71 |
| LWKMKPRRNLEEDDYLMKDTGETS | 4.29 |
| LWKMKPRRNLEEDDYLPKDTGETS | 4.8 |
| LWKMKPRRNLEEDDYLNKDTGETS | 4.28 |
| LWKMKPRRNLEEDDYLDKDTGETS | 4.94 |
| LWKMKPRRNLEEDDYLTKDTGETS | 4.82 |
| LWKMKPRRNLEEDDYLFKDTGETS | 4.16 |
| LWKMKPRRNLEEDDYLWKDTGETS | 3.84 |
| LWKMKPRRNLEEDDYLRKDTGETS | 4.41 |
| LWKMKPRRNLEEDDYLQKDTGETS | 4.68 |
| LWKMKPRRNLEEDDYLGKDTGETS | 4.5 |
| LWKMKPRRNLEEDDYLKKDTGETS | 4.38 |
| LWKMKPRRNLEEDDYLCKDTGETS | 4.32 |
| LWKMKPRRNLEEDDYLYKDTGETS | 4.38 |
| LWKMKPRRNLEEDDYLLKDTGETS | 4.09 |
| LWKMKPRRNLEEDDYLHKDVGETS | 4.05 |
| LWKMKPRRNLEEDDYLHKDNGETS | 4.46 |
| LWKMKPRRNLEEDDYLHKDCGETS | 4.31 |
| LWKMKPRRNLEEDDYLHKDWGETS | 3.85 |
| LWKMKPRRNLEEDDYLHKDQGETS | 4.71 |

| Variant | protein stability index |
| --- | --- |
| LWKMKPRRNLEEDDYLHKDMGETS | 3.84 |
| LWKMKPRRNLEEDDYLHKDSGETS | 4.19 |
| LWKMKPRRNLEEDDYLHKDYGETS | 3.74 |
| LWKMKPRRNLEEDDYLHKDFGETS | 3.51 |
| LWKMKPRRNLEEDDYLHKDEGETS | 4.8 |
| LWKMKPRRNLEEDDYLHKDDGETS | 5.09 |
| LWKMKPRRNLEEDDYLHKDPGETS | 4.51 |
| LWKMKPRRNLEEDDYLHKDIGETS | 4.12 |
| LWKMKPRRNLEEDDYLHKDKGETS | 3.6 |
| LWKMKPRRNLEEDDYLHKDHGETS | 4.26 |
| LWKMKPRRNLEEDDYLHKDLGETS | 4.13 |
| LWKMKPRRNLEEDDYLHKDRGETS | 4.44 |
| LWKMKPRRNLEEDDYLHKDAGETS | 4.39 |
| LWKMKPRRNLEEDDYLHKDGGETS | 4.58 |
| LWKMKPRRNLEEDDYLHKMTGETS | 3.81 |
| LWKMKPRRNLEEDDYLHKWTGETS | 2.87 |
| LWKMKPRRNLEEDDYLHKYTGETS | 3.81 |
| LWKMKPRRNLEEDDYLHKATGETS | 3.94 |
| LWKMKPRRNLEEDDYLHKVTGETS | 3.43 |
| LWKMKPRRNLEEDDYLHKKTGETS | 4.23 |
| LWKMKPRRNLEEDDYLHKNTGETS | 4.39 |
| LWKMKPRRNLEEDDYLHKFTGETS | 3 |
| LWKMKPRRNLEEDDYLHKETGETS | 4.41 |
| LWKMKPRRNLEEDDYLHKHTGETS | 3.83 |

| Variant | protein stability index |
| --- | --- |
| LWKMKPRRNLEEDDYLHKPTGETS | 4.36 |
| LWKMKPRRNLEEDDYLHKSTGETS | 3.48 |
| LWKMKPRRNLEEDDYLHKQTGETS | 4.1 |
| LWKMKPRRNLEEDDYLHKGTGETS | 4.45 |
| LWKMKPRRNLEEDDYLHKCTGETS | 3.8 |
| LWKMKPRRNLEEDDYLHKTTGETS | 3.83 |
| LWKMKPRRNLEEDDYLHKITGETS | 3.46 |
| LWKMKPRRNLEEDDYLHKLTGETS | 3.33 |
| LWKMKPRRNLEEDDYLHKRTGETS | 4.09 |
| LWKMKPRRNLEEDDYLHADTGETS | 5.12 |
| LWKMKPRRNLEEDDYLHRDTGETS | 4.75 |
| LWKMKPRRNLEEDDYLHIDTGETS | 3.58 |
| LWKMKPRRNLEEDDYLHQDTGETS | 4.46 |
| LWKMKPRRNLEEDDYLHNDTGETS | 4.51 |
| LWKMKPRRNLEEDDYLHSDTGETS | 4.53 |
| LWKMKPRRNLEEDDYLHWDTGETS | 3.81 |
| LWKMKPRRNLEEDDYLHCDTGETS | 4.28 |
| LWKMKPRRNLEEDDYLHFDTGETS | 3.38 |
| LWKMKPRRNLEEDDYLHTDTGETS | 4.6 |
| LWKMKPRRNLEEDDYLHVDTGETS | 4.21 |
| LWKMKPRRNLEEDDYLHLDTGETS | 3.93 |
| LWKMKPRRNLEEDDYLHGDTGETS | 4.73 |
| LWKMKPRRNLEEDDYLHDDTGETS | 4.7 |
| LWKMKPRRNLEEDDYLHPDTGETS | 4.47 |

| Variant | protein stability index |
| --- | --- |
| LWKMKPRRNLEEDDYLHMDTGETS | 4.29 |
| LWKMKPRRNLEEDDYLHEDTGETS | 4.87 |
| LWKMKPRRNLEEDDYLHYDTGETS | 4.03 |
| LWKMKPRRNLEEDDYLHHDTGETS | 4.62 |
| LWKMKPRRNLEEDDYLHKDTGMTS | 3.85 |
| LWKMKPRRNLEEDDYLHKDTGLTS | 4.13 |
| LWKMKPRRNLEEDDYLHKDTGHTS | 3.89 |
| LWKMKPRRNLEEDDYLHKDTGCTS | 4 |
| LWKMKPRRNLEEDDYLHKDTGTTS | 3.7 |
| LWKMKPRRNLEEDDYLHKDTGITS | 3.73 |
| LWKMKPRRNLEEDDYLHKDTGGTS | 4.37 |
| LWKMKPRRNLEEDDYLHKDTGVTS | 3.86 |
| LWKMKPRRNLEEDDYLHKDTGSTS | 4.08 |
| LWKMKPRRNLEEDDYLHKDTGFTS | 3.83 |
| LWKMKPRRNLEEDDYLHKDTGDTS | 4.47 |
| LWKMKPRRNLEEDDYLHKDTGQTS | 4.11 |
| LWKMKPRRNLEEDDYLHKDTGPTS | 3.98 |
| LWKMKPRRNLEEDDYLHKDTGRTS | 3.69 |
| LWKMKPRRNLEEDDYLHKDTGNTS | 4.22 |
| LWKMKPRRNLEEDDYLHKDTGWTS | 2.56 |
| LWKMKPRRNLEEDDYLHKDTGYTS | 3.46 |
| LWKMKPRRNLEEDDYLHKDTGKTS | 3.83 |
| LWKMKPRRNLEEDDYLHKDTGATS | 3.92 |
| LWKMKPRRNLEEDDYLHKDTTETS | 4.49 |

| Variant | protein stability index |
| --- | --- |
| LWKMKPRRNLEEDDYLHKDTCETS | 4.21 |
| LWKMKPRRNLEEDDYLHKDTYETS | 4.08 |
| LWKMKPRRNLEEDDYLHKDTDETS | 4.25 |
| LWKMKPRRNLEEDDYLHKDTMETS | 3.93 |
| LWKMKPRRNLEEDDYLHKDTVETS | 3.64 |
| LWKMKPRRNLEEDDYLHKDTKETS | 4.26 |
| LWKMKPRRNLEEDDYLHKDTQETS | 4.33 |
| LWKMKPRRNLEEDDYLHKDTFETS | 3.92 |
| LWKMKPRRNLEEDDYLHKDTNETS | 4.36 |
| LWKMKPRRNLEEDDYLHKDTHETS | 4.42 |
| LWKMKPRRNLEEDDYLHKDTLETS | 3.91 |
| LWKMKPRRNLEEDDYLHKDTPETS | 4.77 |
| LWKMKPRRNLEEDDYLHKDTIETS | 3.31 |
| LWKMKPRRNLEEDDYLHKDTAETS | 4.65 |
| LWKMKPRRNLEEDDYLHKDTRETS | 3.89 |
| LWKMKPRRNLEEDDYLHKDTWETS | 3.15 |
| LWKMKPRRNLEEDDYLHKDTSETS | 4.59 |
| LWKMKPRRNLEEDDYLHKDTEETS | 4.65 |
| LWKMKPRRNLEEDDYQHKDTGETS | 4.87 |
| LWKMKPRRNLEEDDYTHKDTGETS | 4.74 |
| LWKMKPRRNLEEDDYWHKDTGETS | 4.19 |
| LWKMKPRRNLEEDDYRHKDTGETS | 4.1 |
| LWKMKPRRNLEEDDYPHKDTGETS | 4.2 |
| LWKMKPRRNLEEDDYVHKDTGETS | 4.52 |

| Variant | protein stability index |
| --- | --- |
| LWKMKPRRNLEEDDYYHKDTGETS | 4.14 |
| LWKMKPRRNLEEDDYSHKDTGETS | 4.6 |
| LWKMKPRRNLEEDDYMHKDTGETS | 4.24 |
| LWKMKPRRNLEEDDYNHKDTGETS | 4.97 |
| LWKMKPRRNLEEDDYLHKDTGEMS | 3.99 |
| LWKMKPRRNLEEDDYLHKDTGEWS | 3.54 |
| LWKMKPRRNLEEDDYLHKDTGEGS | 4.26 |
| LWKMKPRRNLEEDDYLHKDTGELS | 4.12 |
| LWKMKPRRNLEEDDYLHKDTGEFS | 3.92 |
| LWKMKPRRNLEEDDYLHKDTGECS | 4.05 |
| LWKMKPRRNLEEDDYLHKDTGEKS | 4.73 |
| LWKMKPRRNLEEDDYLHKDTGEAS | 4.63 |
| LWKMKPRRNLEEDDYLHKDTGEVS | 4.12 |
| LWKMKPRRNLEEDDYLHKDTGEHS | 4.4 |
| LWKMKPRRNLEEDDYLHKDTGEQS | 4.52 |
| LWKMKPRRNLEEDDYLHKDTGENS | 4.37 |
| LWKMKPRRNLEEDDYLHKDTGEYS | 4.02 |
| LWKMKPRRNLEEDDYLHKDTGEPS | 4.92 |
| LWKMKPRRNLEEDDYLHKDTGESS | 4.77 |
| LWKMKPRRNLEEDDYLHKDTGEES | 5.03 |
| LWKMKPRRNLEEDDYLHKDTGEDS | 4.59 |
| LWKMKPRRNLEEDDYLHKDTGEIS | 3.53 |
| LWKMKPRRNLEEDDYLHKDTGERS | 4.48 |
| LWKMKPRRNLEEDDYLHKDTGETA | 4.61 |

| Variant | protein stability index |
| --- | --- |
| LWKMKPRRNLEEDDYLHKDTGETI | 3.96 |
| LWKMKPRRNLEEDDYLHKDTGETP | 4.3 |
| LWKMKPRRNLEEDDYLHKDTGETN | 4.72 |
| LWKMKPRRNLEEDDYLHKDTGETW | 3.5 |
| LWKMKPRRNLEEDDYLHKDTGETE | 4.52 |
| LWKMKPRRNLEEDDYLHKDTGETD | 4.65 |
| LWKMKPRRNLEEDDYLHKDTGETQ | 3.85 |
| LWKMKPRRNLEEDDYLHKDTGETG | 4.46 |
| LWKMKPRRNLEEDDYLHKDTGETC | 3.89 |
| LWKMKPRRNLEEDDYLHKDTGETY | 4.11 |
| LWKMKPRRNLEEDDYLHKDTGETR | 3.97 |
| LWKMKPRRNLEEDDYLHKDTGETM | 4.16 |
| LWKMKPRRNLEEDDYLHKDTGETL | 4.1 |
| LWKMKPRRNLEEDDYLHKDTGETT | 4.6 |
| LWKMKPRRNLEEDDYLHKDTGETH | 4.31 |
| LWKMKPRRNLEEDDYLHKDTGETV | 4.38 |
| LWKMKPRRNLEEDDYLHKDTGETF | 4.22 |
| LWKMKPRRNLEEDDYLHKDTGETK | 4.47 |

Variants of: B2
Test: as above
Conditions: c terminus: a fixed tail appended

| Variant | protein stability index |
| --- | --- |
| SDQLVNFTGKAEMGGPFSYVYFFC | 3.75 |
| SCQLVNFTGKAEMGGPFSYVYFFC | 2.18 |
| SHQLVNFTGKAEMGGPFSYVYFFC | 2.8 |
| SFQLVNFTGKAEMGGPFSYVYFFC | 3.3 |
| SAQLVNFTGKAEMGGPFSYVYFFC | 2.44 |
| SIQLVNFTGKAEMGGPFSYVYFFC | 3 |
| SGQLVNFTGKAEMGGPFSYVYFFC | 2.88 |
| AEQLVNFTGKAEMGGPFSYVYFFC | 2.51 |
| YEQLVNFTGKAEMGGPFSYVYFFC | 1.72 |
| KEQLVNFTGKAEMGGPFSYVYFFC | 2.67 |
| IEQLVNFTGKAEMGGPFSYVYFFC | 3.37 |
| WEQLVNFTGKAEMGGPFSYVYFFC | 2.49 |
| LEQLVNFTGKAEMGGPFSYVYFFC | 3.63 |
| FEQLVNFTGKAEMGGPFSYVYFFC | 2.65 |
| REQLVNFTGKAEMGGPFSYVYFFC | 3.55 |
| MEQLVNFTGKAEMGGPFSYVYFFC | 3.28 |
| EEQLVNFTGKAEMGGPFSYVYFFC | 2.98 |
| QEQLVNFTGKAEMGGPFSYVYFFC | 2.63 |
| GEQLVNFTGKAEMGGPFSYVYFFC | 3.79 |
| NEQLVNFTGKAEMGGPFSYVYFFC | 2.85 |
| CEQLVNFTGKAEMGGPFSYVYFFC | 2.6 |
| PEQLVNFTGKAEMGGPFSYVYFFC | 2.9 |
| HEQLVNFTGKAEMGGPFSYVYFFC | 3.23 |
| TEQLVNFTGKAEMGGPFSYVYFFC | 3.09 |
| VEQLVNFTGKAEMGGPFSYVYFFC | 3.6 |
| DEQLVNFTGKAEMGGPFSYVYFFC | 1.62 |
